Biological target: the molecule itself
Assay: high-speed atomic force microscopy

B1: PDI I289A (enzyme)
chain: not shown
stoichiometry N: 2

Reference: article PMC8024706 (iScience, 2021)
